Results published in patent US20230407373A1 (priority 2020, published 2023).
Read-outs that look alike come from different tables or passages of the source.

Columns and labels:
Format in all cases: binding
[1] = tested on: SARS-CoV-2 gRNA; settings: […]; LC-MS/MS; Probe I sample (first 199 lines of Table 2)
[2] = tested on: SARS-CoV-2 gRNA and sgRNAs; settings: for target (unweighted spectral count in RNP capture): Probe II capture, LC-MS/MS LFQ; for background (unweighted spectral count in control): no-probe control pull-down, used as background for Probe II
[3] = tested on: gRNA of HCoV-OC43; settings: for target (spectral count) / background (spectral count): type g_36_m, 36 hpi, Probe I; for target (spectral count): HCoV-OC43-infected HCT-8 cells; for background (spectral count): uninfected-probe control
[4] = tested on: HCoV-OC43 gRNA and sgRNA; settings: for target (spectral count) / background (spectral count): type s_36_m, Probe II; for target (spectral count): HCoV-OC43-infected HCT-8 cells; for background (spectral count): uninfected-probe control
[5] = type n_48_v: 48 hours post-infection, infected cells, OC43 Probe I, unweighted spectral count
[6] = type n_48_v: 48 hours post-infection, no-probe control on infected cells
[7] = 36 hpi, type n_36_v, tested against no-probe control, FDR<10%
[8] = OC43 Probe II, 12 hpi (type n_12_v), infected cells, tested against no-probe control
[9] = OC43 Probe II, 24 hpi (type n_24_v), infected cells, tested against no-probe control
[10] = type n_48_v, 48 hpi, OC43 Probe II capture on infected cells
[11] = type n_48_v, 48 hpi, no-probe control on infected cells

| Molecule | target (unweighted spectral count of the protein in the RNP capture) [1] | target (unweighted spectral count in RNP capture) [2] | background (unweighted spectral count in control) [2] | target (spectral count) [3] | background (spectral count) [3] | target (spectral count, OC43 Probe I RNP capture) [3, 5] | background (spectral count, no-probe control) [3, 6] | target (unweighted spectral count, OC43 Probe II capture) [4, 7] | target (unweighted spectral count) [4, 8] | target (unweighted spectral count) [4, 9] | target (unweighted spectral count, OC43 Probe II) [4, 10] | background (unweighted spectral count, no-probe control) [4, 11] | target (spectral count) ([4]; 36 hpi) | background (spectral count) ([4]; 36 hpi) | background (spectral count, no-probe control) [3] | target (spectral count, OC43 Probe I RNP capture) [3] | background (unweighted spectral count, no-probe control) [4] | target (unweighted spectral count) [4] | target (unweighted spectral count, OC43 Probe II capture) [4] | target (unweighted spectral count, OC43 Probe II) [4] |
| --- | --- | --- | --- | --- | --- | --- | --- | --- | --- | --- | --- | --- | --- | --- | --- | --- | --- | --- | --- | --- |
| ILF3: host protein, UniProt Q12906 (protein, UniProt Q12906 1-894, looked up) Interleukin enhancer-binding …: MRPMRIFVNDDRHVMAKHSSVYPTQEELEAVQNMVSHTERALKAVSDWIDEQEKGSSEQAESDNMDVPPEDDSKEGAGEQKTEHMTRTLRGVMRVGLVAKGLLLKGDLDLELVLLCKEKPTTALLDKVADNLAIQLAAVTEDKYEILQSVDDAAIVIKNTKEPPLSLTIHLTSPVVREEMEKVLAGETLSVNDPPDVLDRQKCLAALASLRHAKWFQARANGLKSCVIVIRVLRDLCTRVPTWGPLRGWPLELLCEKSIGTANRPMGAGEALRRVLECLASGIVMPDGSGIYDPCEKEATDAIGHLDRQQREDITQSAQHALRLAAFGQLHKVLGMDPLPSKMPKKPKNENPVDYTVQIPPSTTYAITPMKRPMEEDGEEKSPSKKKKKIQKKEEKAEPPQAMNALMRLNQLKPGLQYKLVSQTGPVHAPIFTMSVEVDGNSFEASGPSKKTAKLHVAVKVLQDMGLPTGAEGRDSSKGEDSAEETEAKPAVVAPAPVVEAVSTPSAAFPSDATAEQGPILTKHGKNPVMELNEKRRGLKYELISETGGSHDKRFVMEVEVDGQKFQGAGSNKKVAKAYAALAALEKLFPDTPLALDANKKKRAPVPVRGGPKFAAKPHNPGFGMGGPMHNEVPPPPNLRGRGRGGSIRGRGRGRGFGGANHGGYMNAGAGYGSYGYGGNSATAGYSQFYSNGGHSGNASGGGGGGGGGSSGYGSYYQGDNYNSPVPPKHAGKKQPHGGQQKPSYGSGYQSHQGQQQSYNQSPYSNYGPPQGKQKGYNHGQGSYSYSNSYNSPGGGGGSDYNYESKFNYSGSGGRSGGNSYGSGGASYNPGSHGGYGGGSGGGSSYQGKQGGYSQSNYNSPGSGQNYSGPPSSYQSSQGGYGRNADHSMNYQYR | 15 | 15 | 1 | 39 | 3 | 38 | 2 | 31 | 7 | 14 | 36 | 2 | 31 | 3 | – | – | – | – | – | – |
| PURA (protein, UniProt Q00577 2-322, looked up) Transcriptional activator …: ADRDSGSEQGGAALGSGGSLGHPGSGSGSGGGGGGGGGGGGSGGGGGGAPGGLQHETQELASKRVDIQNKRFYLDVKQNAKGRFLKIAEVGAGGNKSRLTLSMSVAVEFRDYLGDFIEHYAQLGPSQPPDLAQAQDEPRRALKSEFLVRENRKYYMDLKENQRGRFLRIRQTVNRGPGLGSTQGQTIALPAQGLIEFRDALAKLIDDYGVEEEPAELPEGTSLTVDNKRFFFDVGSNKYGVFMRVSEVKPTYRNSITVPYKVWAKFGHTFCKYSEEMKKIQEKQREKRAACEQLHQQQQQQQEETAAATLLLQGEEEGEED | 15 | 19 | 1 | – | – | 7 | 1 | 5 | – | – | 12 | 1 | – | – | – | – | – | – | – | – |
| FUBP1: host protein, UniProt Q96AE4 (protein, UniProt Q96AE4 2-644, looked up) Far upstream element-binding …: ADYSTVPPPSSGSAGGGGGGGGGGGVNDAFKDALQRARQIAAKIGGDAGTSLNSNDYGYGGQKRPLEDGDQPDAKKVAPQNDSFGTQLPPMHQQQSRSVMTEEYKVPDGMVGFIIGRGGEQISRIQQESGCKIQIAPDSGGLPERSCMLTGTPESVQSAKRLLDQIVEKGRPAPGFHHGDGPGNAVQEIMIPASKAGLVIGKGGETIKQLQERAGVKMVMIQDGPQNTGADKPLRITGDPYKVQQAKEMVLELIRDQGGFREVRNEYGSRIGGNEGIDVPIPRFAVGIVIGRNGEMIKKIQNDAGVRIQFKPDDGTTPERIAQITGPPDRCQHAAEIITDLLRSVQAGNPGGPGPGGRGRGRGQGNWNMGPPGGLQEFNFIVPTGKTGLIIGKGGETIKSISQQSGARIELQRNPPPNADPNMKLFTIRGTPQQIDYARQLIEEKIGGPVNPLGPPVPHGPHGVPGPHGPPGPPGPGTPMGPYNPAPYNPGPPGPAPHGPPAPYAPQGWGNAYPHWQQQAPPDPAKAGTDPNSAAWAAYYAHYYQQQAQPPPAAPAGAPTTTQTNGQGDQQNPAPAGQVDYTKAWEEYYKKMGQAVPAPTGAPPGGQPDYSAAWAEYYRQQAAYYAQTSPQGMPQHPPAPQGQ | 32 | 21 | 1 | 15 | 2 | – | 2 | 17 | 6 | 12 | 21 | 2 | 17 | 1 | – | – | – | – | – | – |
| HNRNPH3 (protein, UniProt P31942 1-346, looked up) Heterogeneous nuclear …: MDWVMKHNGPNDASDGTVRLRGLPFGCSKEEIVQFFQGLEIVPNGITLTMDYQGRSTGEAFVQFASKEIAENALGKHKERIGHRYIEIFRSSRSEIKGFYDPPRRLLGQRPGPYDRPIGGRGGYYGAGRGSMYDRMRRGGDGYDGGYGGFDDYGGYNNYGYGNDGFDDRMRDGRGMGGHGYGGAGDASSGFHGGHFVHMRGLPFRATENDIANFFSPLNPIRVHIDIGADGRATGEADVEFVTHEDAVAAMSKDKNNMQHRYIELFLNSTPGGGSGMGGSGMGGYGRDGMDNQGGYGSVGRMGMGNNYSGGYGTPDGLGGYGRGGGGSGGYYGQGGMSGGGWRGMY | 23 | 17 | 1 | – | – | 16 | 2 | 18 | 6 | 15 | 21 | 2 | – | – | – | – | – | – | – | – |
| SRSF3 (protein, UniProt P84103 1-164, looked up) Serine/arginine-rich splicing …: MHRDSCPLDCKVYVGNLGNNGNKTELERAFGYYGPLRSVWVARNPPGFAFVEFEDPRDAADAVRELDGRTLCGCRVRVELSNGEKRSRNRGPPPSWGRRPRDDYRRRSPPPRRRSPRRRSFSRSRSRSLSRDRRRERSLSRERNHKPSRSFSRSRSRSRSNERK | 16 | 20 | 1 | – | – | – | – | – | – | – | – | – | – | – | 3 | 14 | 3 | 6 | 18 | 16 |
